Columns and labels:
Assay type in all cases: biochemical
[1] = Cation dependence; settings: 10 to 100 mM
Description: FIG. 3 represents Table 3 giving an overview over the biochemical properties of the cellulases according to the invention. Reaction was performed at the optimum pH and temperature for each done using CMC as substrate. […] The values for clones pBKRR.1, 9, 11, 13, 14, 16 and 22 are depicted. For each clone the following data are given: • maximum pH at which the remaining activity after 24 h incubation at the indicate pH is >90% (column “Stable at pH”). […] Activity was measured after 2 h incubation and compared with a control reaction in buffer lacking dimethylsulfoxide, • detergent resistance given by the remaining activity in the corresponding buffer (optimum pH) containing the indicate detergent at a concentration for 0 to 3%. […] The effect of mono- (Na^+, K^+, NH4^+, and divalent cations (Ca^2+, Mn^2+, Mg^2+, Sr^2+, Fe^2+, Cu^2+, Ni^2+, Co^2+, Zn^2+) was first examined by treating the enzyme with chelating agents (EDTA and EGTA) to remove any endogenous divalent cations, followed by adding cations to the reaction mixture.
[…] Inhibitors such as N-ethylmalemide, iodoacetate and p-chloromercuribenzoate at concentration from 1-5 mM were incubated in the presence of the enzyme for 30 min (30° C.) prior to the addition of the substrate (CMC). The effects of detergents on the endoglucanase activity was analysed by adding of 1-3% (wt/vol) detergent to the enzyme solution. In all cases, the enzyme activity was assayed in triplicate using the standard cellulose assay described above and the residual activity was expressed as percent of the control value (without addition of chemicals).

[2] = pH-dependent activity and pH stability; settings: cell lysates; CMC; pH 3.5 to 10.5 at 40° C.
Description: (§1) FIG. 3 represents Table 3 giving an overview over the biochemical properties of the cellulases according to the invention. Reaction was performed at the optimum pH and temperature for each done using CMC as substrate. […] The values for clones pBKRR.1, 9, 11, 13, 14, 16 and 22 are depicted. For each clone the following data are given: • maximum pH at which the remaining activity after 24 h incubation at the indicate pH is >90% (column “Stable at pH”). […] Activity was measured after 2 h incubation and compared with a control reaction in buffer lacking dimethylsulfoxide, • detergent resistance given by the remaining activity in the corresponding buffer (optimum pH) containing the indicate detergent at a concentration for 0 to 3%. […]
(§2) FIG. 4 a-c represent the results of the determination of pH and temperature optima showing graphically views of the pH-dependence activity and temperature-dependence activity of the polypeptides according to the invention. The pH optima of rumial endoglucanases were measured under conditions described in Example 5: 4% CMC, 0.5 mL of 50 mM buffer at the corresponding pH and 0.1 mg E. coli cell lysates, for 5-30 min, at 40° C. Effect of temperature on endoglucanase activity was measured in 50 mM sodium acetate buffer pH 5.6. […]

[3] = Specific activity of purified endoglucanases; settings: purified to homogeneity; pH 5.6 and 50° C.; CMC as substrate
Description: FIG. 2 represents Table 2 which contains the data obtained by purification of endoglucanases of seven clones (pBKRR.1, 9, 11, 13, 14, 16 and 22) with respect to the specific activity. […] They were purified to homogeneity and their specific activity was estimated at pH 5.6 and 50° C., using CMC as substrate.
The endoglucanases were recovered from 1-liter shaked flask fermentations, in Luria-Bertany broth plus 50 μg of Kanamycin per ml. One gram of fermentation broth was mixed with 10 ml of standard buffer in a 50-ml Falcon tube. The solution was vortexed and then incubated with DNase I grade II, for 30-45 min, and then sonicated for 4 min total time. A sample of the soluble fraction was separated from insoluble debris by centrifugation (10,000×g, 30 min, 4° C.) and proteins were precipitated by addition of 80% chilled acetone (−20° C.). Proteins were resuspended in standard buffer and stored at −20° C. at a concentration of 5 mg/ml until use. The amount of protein expression was examined using SDS-PAGE with 10-12% acrylamide. […] The gel region containing the active cellulase, detected in a parallel track by activity staining (using Ostazin brillian-blue carboxymethyl cellulose) was excised, suspended in two volumes of standard fuffer and homogenized in a glass tissue homogenizer. […]
The standard cellulase activity was determined in a continuous spectrophotometric assay by measuring the release of reducing sugars from the 4% (wt/vol carboxymethyl cellulose (CMC) in 0.5-ml reaction mixtures containing 50 mM sodium acetate buffer, pH 5.6, at 40° C., using the dinitrosalycilic acid (DNS) method (Bernfeld, P. (1955) Amilases and b. In: Colowick S P, Kaplan N O (eds). Methods in Enzymology, Academic Press, New York pp. 133-155). The reaction was performed in 0.5 ml scale containing 20 mg substrate and 5 mg lyophilised cells or 0.1 mg purified enzyme. Reactions were allow to proceed for a time period of 5-30 min after which the samples were centrifuge (10,000×g, 3 min). […] Finally, each well was diluted with 150 μl water and the absorbance at 550 nm was measured. […]

[4] = Thermal activity and thermostability; settings: at the pH optima; CMC
Description: as §1, §2

[5] = TLC analysis of hydrolysis products; settings: pH 5.6, 50° C.
Excerpt: FIG. 7 depicts the result of thin layer chromatography TLC analysis of products of CMC hydrolyzed by endoglucanases derived from a rumial genomic DNA library. The methods used for cellulase and substrate preparation, hydrolysis, TLC, and visualization are described in Example 5. The hydrolysis products glucose, cellobiose, cellotriose are shown an the right side. […] Different pattern was found when using short-chain beta-1,4-glucans.
The products formed by hydrolysis of cellulose-based substrates (cellobiose, cellotetraose, cellopentaose, cellulose and carboxymethyl cellulose) were analysed by thin-layer chromatography (TLC). Solutions containing 20 μg of E. coli cell lysate proteins and 0.2% (wt/vol) substrate in 50 mM acetate buffer (pH 5.6) were incubated at 50° C. until maximum conversion was achieved. The reactions were terminated by heating the preparation for 5 min at 95° C. and hydrolysis products were separated by TLC on silica gel plates (Merck, Darmstadt, Germany) by using a mixture chloroform, glacial acetic acid, and water (6:14:1) as the solvent. […] Sugars were visualized by heating 105° C. for 15 min the plates which were previously sprayed with a reagent containing amine (2 ml), diphenylamine (2 g), acetone (100 ml) and 85% H3PO4 (15 ml).

B1: pBKRR.11: rumen endo-beta-1,4-glucanase, sequences FIG. 14/22 (protein)
chain: MRILKLFFIALITAAPIFSYAQTVDDMKSVFVDAHTWTASIKMGWNLGNALECQTGWNDKAFCWNPANNFNAETSWGNPKTTKEMLQAVREAGFDAVRIPVNWGAHISDESTCTIDAAWMNRVQEVVDWALQLGFKVLLNTHHEYWLEWHPTYDREQANNNKLAKIWMQVANRFKDYGPDLAFAGINEVHLDGKWNVPTEENTAVTNSYNQTFVNTVRATGGNNLYRNLVVQCYSCNPDYGLTGFVVPADKVENRLSIEYHYYRPWDYAGDAPKYYYWGEAYKQYGEVSTADNEAKVNADFARYKAAWYDKGLGVIMGEWGASQHYQVESKAKQLENLYYHFKTVREAAQKNNIATFVWDNNACGNGGDKFGIFDRNDNMSVAFPEALNAIQEASGQTVVDYSRQALQPSVVYQGDELMNWGEGKQLIIAGSKFAYFTAESKLMVTLDAEPGADYDMLQFAYGDWKSKPLMIISGRSYKGQVEPSKINGSRNTYTLFIGFKESSLNQLKDKGITLQGHGLRLRNVVVMPEGLVLGL
modifications: Description of sequence sequence derived from genomic DNA library from rumen ecosystem, particularly amino acid sequence of clones pBKRR 11, 10 and 12; RR10=RR11=RR12; (see Figure 22)
- stimulatory effect of Mg^2+ ([1]; chloride salt): 127%
- influence of mono- and divalent cations on activity ([1]; chloride salts, after EDTA and EGTA treatment): not influenced
- pH of highest (maximal) activity [2]: 4.5 pH
- specific activity [3]: 6.42 µmol/min/mg
- temperature of improved activity and thermostability [4]: 50 °C
- main hydrolysis products of CMC [5]: cellobiose and cellotriose

Reference: patent US20080261267A1, “Cellulases from Rumen” (priority 2004, published 2008)
